{"source": "patent US7018627", "about": "(ICOS, dated 2006)", "molecules": {"B1": {"name": "murine Leu-MDC (ligand)", "chain": "LGPYGANVEDSICCQDYIRHPLPSRLVKEFFWTSKSCRKPGVVLITVKNRDICADPRQVWVKKLLHKLS"}, "B2": {"name": "human C-C chemokine receptor 4 (CCR4) (receptor)", "chain": "MNPTDIADTTLDESIYSNYYLYESIPKPCTKEGIKAFGELFLPPLYSLVFVFGLLGNSVVVLVLFKYKRLRSMTDVYLLNLAISDLLFVFSLPFWGYYAADQWVFGLGLCKMISWMYLVGFYSGIFFVMLMSIDRYLAIVHAVFSLRARTLTYGVITSLATWSVAVFASLPGFLFSTCYTERNHTYCKTKYSLNSTTWKVLSSLEINILGLVIPLGIMLFCYSMIIRTLQHCKNEKKNKAVKMIFAVVVLFLGFWTPYNIVLFLETLVELEVLQDCTFERYLDYAIQATETLAFVHCCLNPIIYFFLGEKFRKYILQLFKTCRGLFVLCQYCGLLQIYSADTPSSSYTQSTMDHDLHDAL", "notes": "Expressed on stably transfected murine pre-B L1.2 cells (L1.2/CCR4, L1.2/huCCR4); also called huCCR4; MDC receptor CCR4"}, "B3": {"name": "human mature Macrophage Derived Chemokine, MDC(1-69) (ligand)", "chain": "GPYGANMEDSVCCRDYVRYRLPLRVVKHFYWTSDSCPRPGVVLLTFRDKEICADPRVPWVKMILNKLSQ", "notes": "also called mature MDC; human mature MDC"}, "B4": {"name": "MDC-eyfy (ligand)", "chain": "B3 chain with H28E, F29Y, Y30F, W31Y"}, "B5": {"name": "MDC-wvas (ligand)", "chain": "B3 chain with W59A, V60S", "notes": "Chemically synthesized analog"}, "B6": {"name": "TARC (Thymus and Activation-Regulated Chemokine) (ligand)", "chain": "ARGTNVGRECCLEYFKGAIPLRKLKTWYQTSEDCSRDAIVFVTVQGRAICSDPNNKRVKNAVKYLQSLERS", "notes": "The whole entry is named here"}, "B7": {"name": "MDC (9-69) (ligand)", "chain": "DSVCCRDYVRYRLPLRVVKHFYWTSDSCPRPGVVLLTFRDKEICADPRVPWVKMILNKLSQ", "notes": "Chemically synthesized N-terminal deletion analog"}}, "key": {"[1]": {"molecular_target": "B2", "assay": "competition with 0.1 nM 125I-labeled human MDC on L1.2/huCCR4 cells; LARC at 100 nM"}, "[2]": {"molecular_target": "B2", "assay": "cell-based or functional assay"}, "MDC-SEAP fusion protein": {"molecular_target": "T1, MDC-SEAP fusion protein (human, UniProt P05187 23-506)", "T1 construct": "mature; Expressed from pcDNA3 in COS cells and used as filtered culture supernatant; also called synthetic MDC-SEAP", "assay": "saturation binding of MDC-SEAP to CCR4-transfected L1.2 cells, Scatchard analysis", "experimental": "(§1) The MDC-SEAP was used as a probe to examine MDC binding to CCR4-transfected L1.2 cells. For displacement and saturation experiments, transfected L1.2 cells (approx. 3×10^5) were incubated for one hour at 16° C. in the presence of 0.5 nM MDC-SEAP in the presence or absence of various concentrations of unlabeled chemokines in 200 μl binding buffer (RPMI 1640 media containing 25 mM HEPES, pH 7.4, 1% BSA, and 0.02% sodium azide). Following incubation, the cells were washed four times in binding buffer and lysed in 50 μl of 10 mM Tris-HCl, pH 8.0, and 1% Triton X-100. Samples were heated at 65° C. for 15 minutes to inactivate cellular phosphatases, centrifuged, and stored at −20° C. until assayed.\n(§2) Alkaline phosphatase activity in 10 μl of sample was determined by a chemiluminescence assay using the Great Escape Detection kit (Clontech, Palo Alto, Calif.) according to the manufacturer's instructions. […] Binding competition curves were fitted (TableCurve™) using a three-parameter logistic model described by the equation y=a/[1+(x/b)^c], where y is the amount of labelled ligand bound, a is the maximum amount of labelled ligand bound, x is the concentration of the competitive chemokine, b is the IC$50$, and c is a parameter that determines the slope of the curve at the IC$50$."}, "[3]": {"molecular_target": "B2", "assay": "displacement of 0.5 nM MDC-SEAP from CCR4-transfected L1.2 cells by unlabeled chemokine", "experimental": "as §1, §2"}, "[4]": {"molecular_target": "B2", "assay": "CCR4 binding assay on L1.2/CCR4 cells, essentially as in Example 25"}}, "note": "Residue numbers refer to the chain shown, from its start."}
{"molecule": "chemokine LARC (from UniProt P78556 27-96) (ligand)", "values": [{"measurement": "cpm of labeled MDC bound in the presence of the competitor", "setting": "[1]", "value": 3800, "unit": "cpm"}]}
{"molecule": "B1", "values": [{"measurement": "chemotaxis of L1.2/huCCR4 cells: response relative to full-length murine MDC", "setting": "[2]", "value": "~20", "unit": "% lower"}]}
{"molecule": "B2", "values": [{"measurement": "Kd", "setting": "MDC-SEAP fusion protein", "value": 0.18, "unit": "nM"}]}
{"molecule": "B3", "values": [{"measurement": "IC50", "setting": "[3]", "value": 0.65, "unit": "nM"}, {"measurement": "fold higher affinity than TARC", "setting": "[3]", "value": "> 3", "unit": "fold"}]}
{"molecule": "B4", "values": [{"measurement": "binding result", "setting": "[4]", "value": "binds"}]}
{"molecule": "B5", "values": [{"measurement": "fold less affinity than MDC", "setting": "[4]", "value": "~500", "unit": "fold"}]}
{"molecule": "B6", "values": [{"measurement": "IC50", "setting": "[3]", "value": 2.1, "unit": "nM"}]}
{"molecule": "B7", "values": [{"measurement": "binding result", "setting": "[4]", "value": "binds"}]}
